Measured values: patent US20260028407A1 (FIBROGEN, published 2026)
Where a chain is given by its changes, count along the chain named. Where two headings read alike, the source gives them in different places. One block for each binder: values may come before it.

Experiments:
human Galectin-9 (Gal9) [1] = target: T1, human Galectin-9 (Gal9) (human, UniProt O00182-2 1-323, limits assumed); test: solution equilibrium assay (SEA), human Gal9
T1 construct: also called human Gal9

human Galectin-9 (Gal9) [2] = target: T1, human Galectin-9 (Gal9); test: solution equilibrium assay (SEA), human Gal9; remark: listed apart in the source
mouse Galectin-9 (Gal9) [3] = target: T2, mouse Galectin-9 (Gal9) (mouse, UniProt O08573-2 2-322, limits assumed); test: solution equilibrium assay (SEA), mouse Gal9
T2 construct: also called mouse Gal9
T2 sequence (O08573 other isoform, or with tags, fused parts or gaps limits assumed): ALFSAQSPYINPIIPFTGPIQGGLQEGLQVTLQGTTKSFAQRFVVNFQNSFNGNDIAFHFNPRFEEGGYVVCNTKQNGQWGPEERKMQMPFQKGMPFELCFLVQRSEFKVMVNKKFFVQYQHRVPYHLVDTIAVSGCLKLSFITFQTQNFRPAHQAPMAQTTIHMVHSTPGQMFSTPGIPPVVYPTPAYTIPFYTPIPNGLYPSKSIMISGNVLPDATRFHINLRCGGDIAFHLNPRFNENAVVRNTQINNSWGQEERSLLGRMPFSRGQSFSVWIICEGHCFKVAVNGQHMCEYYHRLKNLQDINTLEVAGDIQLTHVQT

[4] = target: T3, Gal9 as added in the T-cell apoptosis and TIM-3 dimerization assays (species not stated); test: cell-based or functional assay
T3 sequence (O00182 whole entry): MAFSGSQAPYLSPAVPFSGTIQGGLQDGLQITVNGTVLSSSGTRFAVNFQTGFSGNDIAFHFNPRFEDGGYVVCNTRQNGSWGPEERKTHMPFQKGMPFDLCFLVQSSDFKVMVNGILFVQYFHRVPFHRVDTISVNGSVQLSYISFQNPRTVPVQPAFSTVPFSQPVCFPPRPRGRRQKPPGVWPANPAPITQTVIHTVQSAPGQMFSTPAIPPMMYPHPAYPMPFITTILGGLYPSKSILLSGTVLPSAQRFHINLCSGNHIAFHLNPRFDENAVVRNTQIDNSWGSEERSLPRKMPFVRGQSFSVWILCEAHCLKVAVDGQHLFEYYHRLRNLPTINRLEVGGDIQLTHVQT

human Galectin-9 (Gal9) [5] = target: T1, human Galectin-9 (Gal9); test: SPR
mouse Galectin-9 (Gal9) [6] = target: T2, mouse Galectin-9 (Gal9); test: solution equilibrium assay (SEA), mouse Gal9; remark: listed apart in the source
human Galectin-9 (Gal9) [7] = target: T1, human Galectin-9 (Gal9); test: SPR; remark: listed apart in the source
[8] = target: T3, Gal9 as added in the T-cell apoptosis …; test: cell-based or functional assay; remark: listed apart in the source
[9] = target: T3, Gal9 as added in the T-cell apoptosis …; test: cell-based or functional assay; remark: listed apart in the source
[10] = target: T3, Gal9 as added in the T-cell apoptosis …; test: cell-based or functional assay; remark: listed apart in the source

T1 sequence (O00182 other isoform, or with tags, fused parts or gaps limits assumed): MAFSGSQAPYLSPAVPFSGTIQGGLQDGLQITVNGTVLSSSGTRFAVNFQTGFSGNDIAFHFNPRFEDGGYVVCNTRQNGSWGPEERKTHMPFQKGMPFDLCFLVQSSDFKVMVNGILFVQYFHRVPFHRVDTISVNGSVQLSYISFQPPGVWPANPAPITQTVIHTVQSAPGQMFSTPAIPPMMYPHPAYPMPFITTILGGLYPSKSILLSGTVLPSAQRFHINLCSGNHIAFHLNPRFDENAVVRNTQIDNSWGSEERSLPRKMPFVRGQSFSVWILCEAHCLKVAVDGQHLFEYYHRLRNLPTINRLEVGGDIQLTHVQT

Kd (human Galectin-9 (Gal9) [1]): 3.1 nM
Kd (human Galectin-9 (Gal9) [2]): 3.1 nM
Kd (mouse Galectin-9 (Gal9) [3]): 49 nM
IC50 of reducing Gal9-induced CD4+ T cell apoptosis [4]: 18.7 nM
Kd (human Galectin-9 (Gal9) [5]): 7.18 nM
koff (human Galectin-9 (Gal9) [5]): 0.0099 s⁻¹
kon (human Galectin-9 (Gal9) [5]): 1.4e+06 M⁻¹ s⁻¹
Kd (mouse Galectin-9 (Gal9) [6]): 49 nM
Kd (human Galectin-9 (Gal9) [7]): 4.9 nM
koff (human Galectin-9 (Gal9) [7]): 0.00077 s⁻¹
kon (human Galectin-9 (Gal9) [7]): 160000 M⁻¹ s⁻¹
B1: antibody A (Ab A), HFB9-2hz11, parental humanized anti-Gal9 antibody (antibody, V domains shown)
VH: QVQLVQSGAEVKKPGASVKVSCKASGYTFTEYTIHWVRQAPGQGLEWMGWFYPGSGSTEYAQKFQGRVTMTADTSISTAYMELSRLRSDDTAVYFCERHGGYDGFDYWGQGTTVTVSS
VL: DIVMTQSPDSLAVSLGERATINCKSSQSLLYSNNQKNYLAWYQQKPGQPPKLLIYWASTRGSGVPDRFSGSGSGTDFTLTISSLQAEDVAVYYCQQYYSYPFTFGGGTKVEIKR
notes: also called antibody Ab A

IC50 (read off the curve), inhibition of Gal9-induced TIM-3 dimerization [8]: ~20 nM
B2: antibody 003 (Ab 003), affinity matured anti-Gal9 antibody (antibody, V domains shown)
VH: B1 VH with T28P, T30S, E31S, R98V
VL: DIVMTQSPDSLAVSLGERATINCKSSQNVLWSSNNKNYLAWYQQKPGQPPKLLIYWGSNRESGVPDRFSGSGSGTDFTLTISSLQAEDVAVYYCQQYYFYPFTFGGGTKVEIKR
notes: Full HC/LC entries; they may hold a signal peptide

IC50 (read off the curve), inhibition of Gal9-induced CD4+ T cell apoptosis [9]: ~6 nM
IC50, inhibition of Gal9-induced CD4+ T cell apoptosis (% AnnexinV+PI+ cells) [9]: 6.1 nM
IC50, inhibition of Gal9-induced CD8+ T cell apoptosis (% AnnexinV+PI+ cells) [10]: 1.34 nM
IC50 of reducing Gal9-induced CD4+ T cell apoptosis [4]: 1.9 nM
IC50 (read off the curve), inhibition of Gal9-induced TIM-3 dimerization [8]: ~20 nM
IC50, inhibition of Gal9-induced TIM-3 dimerization (RLU, enzyme fragment complementation) [8]: 25 nM
B3: antibody 001 (Ab 001), affinity matured anti-Gal9 antibody (antibody, V domains shown)
VH: B1 VH with T28E, E59W
VL: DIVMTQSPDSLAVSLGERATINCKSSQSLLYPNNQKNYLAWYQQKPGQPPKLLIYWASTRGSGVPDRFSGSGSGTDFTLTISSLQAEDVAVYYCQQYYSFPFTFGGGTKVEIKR
notes: as for B2
